Source: patent publication US12297272B2, “IgG Fc variants for veterinary use” (Elanco US Inc., priority 2017, dated 2025)

Assays:
[1] = biological target: Protein A (Staphylococcus aureus, UniProt P38507); settings: for Protein A Binding: Wild-type Equine IgG Fc
Method: In some embodiments, the KD of an IgG Fc polypeptide, such as a variant IgG Fc polypeptide, to Protein A or to C1q or to CD16 is measured by using biolayer interferometry assays using a biosensor, such as an Octet® System (Pall ForteBio LLC, Fremont, CA) according to the supplier's instructions. In brief, biotinylated Protein A or C1q or CD16 is bound to the sensor tip and the association of IgG Fc polypeptide is monitored for a specified time or until steady state is reached. Dissociation may be monitored for a specified time or until steady state is reached. A buffer only blank curve is subtracted to correct for any drift. The data are fit to a 2:1 binding model using ForteBio data analysis software to determine association rate constant (kon), dissociation rate constant (koff), and the Kd. The equilibrium dissociation constant (KD) is calculated as the ratio of koff/kon. The term “kon” refers to the rate constant for association of a molecule X to its partner Y and the term “koff” refers to the rate constant for dissociation of a molecule X or partner Y from the molecule X/partner Y complex.
Binding analysis may be performed using an Octet biosensor. Briefly, the target molecule (e.g., Protein A, C1q, CD16, etc.) may be biotinylated and free unreacted biotin removed (e.g., by dialysis). The biotinylated target molecule is captured on streptavidin sensor tips. Association of the target molecule with various concentrations (e.g., 10 μg/mL) of IgG Fc polypeptide is monitored for a specified time or until steady state is reached. Dissociation is monitored for a specified time or until steady state is reached. A buffer only blank curve may be subtracted to correct for any drift. The data are fit to a 1:1 binding model using ForteBio™ data analysis software to determine the kon, koff, and the Kd.

[2] = biological target: C1q (Homo sapiens, UniProt P02745+P02746+P02747); test: C1q binding of IgG Fc polypeptides (Octet biolayer interferometry described); on C1q binding: key: (−) denotes low or no measurable binding activity
Source text: Binding analysis may be performed using an Octet biosensor.

Chain of C1q (P02745 23-245): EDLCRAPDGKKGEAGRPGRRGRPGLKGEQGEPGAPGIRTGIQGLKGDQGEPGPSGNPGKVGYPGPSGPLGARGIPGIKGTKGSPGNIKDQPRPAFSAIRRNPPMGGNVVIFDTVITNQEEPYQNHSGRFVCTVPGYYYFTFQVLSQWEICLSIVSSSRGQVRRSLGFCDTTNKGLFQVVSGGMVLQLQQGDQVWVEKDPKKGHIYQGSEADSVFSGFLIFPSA
Chain of C1q (P02746 28-253): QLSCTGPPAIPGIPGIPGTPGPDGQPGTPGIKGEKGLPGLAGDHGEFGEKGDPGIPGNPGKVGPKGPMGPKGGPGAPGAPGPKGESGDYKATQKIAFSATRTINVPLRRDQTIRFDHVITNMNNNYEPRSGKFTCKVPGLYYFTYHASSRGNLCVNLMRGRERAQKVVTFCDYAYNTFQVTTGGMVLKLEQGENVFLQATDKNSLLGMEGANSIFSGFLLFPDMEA
Chain of C1q (P02747 29-245): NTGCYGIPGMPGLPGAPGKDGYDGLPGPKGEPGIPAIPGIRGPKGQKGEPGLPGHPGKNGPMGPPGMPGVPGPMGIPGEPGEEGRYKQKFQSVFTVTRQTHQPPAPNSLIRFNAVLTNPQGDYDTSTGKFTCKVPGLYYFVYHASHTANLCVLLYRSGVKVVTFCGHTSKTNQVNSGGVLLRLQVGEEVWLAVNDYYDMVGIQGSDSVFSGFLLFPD

Molecule	Protein A binding affinity [1]	binding affinity to C1q [2]	Protein A Binding [1]	C1q Binding ([2]; Wild-type Equine IgG Fc)	C1q Binding ([2]; Wild-type Feline IgG Fc)
equine IgG1 Fc: wild-type equine IgG1 Fc polypeptide (protein, Wild-type equine IgG1 Fc , Protein A +, C1q +, wild-type equine IgG1 Fc polypeptide) GGPSVFLFPPNPKDTLMITRTPEVTCVVVDVSQENPDVKFNWYMDGVEVRTATTRPKEEQFNSTYRVVSVLRIQHQDWLSGKEFKCKVNNQALPQPIERTITKTKGRSQEPQVYVLAPHPDESKKSKVSVTCLVKDFYPPEINIEWQSNGQPELETKYSTTQAQQDSDGSYFLYSKLSVDRNRWQQGTTFTCGVMHEALHNHYTQKNVSKNPGK	have Protein A binding affinity	bind to C1q			
equine IgG3 Fc: wild-type equine IgG3 Fc polypeptide (protein, Wild-type equine IgG3 Fc, Protein A +, C1q+, wild-type equine IgG3 Fc polypeptide) GGPSVFIFPPKPKDVLMITRMPEVTCLVVDVSHDSSDVLFTWYVDGTEVKTAKTMPNEEQNNSTYRVVSVLRIQHQDWLNGKKFKCKVNNQALPAPVERTISKATGQTRVPQVYVLAPHPDELSKNKVSVTCLVKDFYPPDITVEWQSNEHPEPEGKYRTTEAQKDSDGSYFLYSKLTVEKDRWQQGTTFTCVVMHEALHNHVMQKNISKNPGK	have Protein A binding affinity	bind to C1q			
equine IgG4 Fc: wild-type equine IgG4 Fc polypeptide (protein, Wild-type equine IgG4 Fc, Protein A +, C1q +, wild-type equine IgG4 Fc polypeptide) VGPSVFIFPPKPKDVLMISRTPTVTCVVVDVGHDFPDVQFNWYVDGVETHTATTEPKQEQFNSTYRVVSVLPIQHKDWLSGKEFKCKVNNKALPAPVERTISAPTGQPREPQVYVLAPHRDELSKNKVSVTCLVKDFYPPDIDIEWKSNGQPEPETKYSTTPAQLDSDGSYFLYSKLTVETNRWQQGTTFTCAVMHEALHNHYTEKSVSKSPGK	have Protein A binding affinity	bind to C1q			
equine IgG7 Fc: wild-type equine IgG7 Fc polypeptide (protein, Wild-type equine IgG7 Fc, Protein A +, C1q +, wild-type equine IgG7 Fc polypeptide) VGPSVFIFPPKPKDVLMISRTPTVTCVVVDVGHDFPDVQFNWYVDGVETHTATTEPKQEQNNSTYRVVSILAIQHKDWLSGKEFKCKVNNQALPAPVQKTISKPTGQPREPQVYVLAPHPDELSKNKVSVTCLVKDFYPPDIDIEWKSNGQPEPETKYSTTPAQLDGDGSYFLYSKLTVETNRWQQGTTFTCAVMHEALHNHYTEKSVSKSPGK	have Protein A binding affinity	bind to C1q			
equine IgG2 Fc: wild-type equine IgG2 Fc polypeptide (protein, Synthetic Variant equine Fc IgG2 (with equine IgG1 hinge), Protein A - , C1q -; Wild-type equine IgG2 Fc, Protein A -, C1q -, wild-type equine IgG2 Fc polypeptide) chain 1: DMSKCPKCPAPELLGGPSVFIFPPNPKDALMISRTPVVTCVVVNLSDQYPDVQFSWYVDNTEVHSAITKQREAQFNSTYRVVSVLPIQHQDWLSGKEFKCSVTNVGVPQPISRAISRGKGPSRVPQVYVLPPHPDELAKSKVSVTCLVKDFYPPDISVEWQSNRWPELEGKYSTTPAQLDGDGSYFLYSKLSLETSRWQQVESFTCAVMHEALHNHFTKTDISESLGK chain 2: GGPSVFIFPPNPKDALMISRTPVVTCVVVNLSDQYPDVQFSWYVDNTEVHSAITKQREAQFNSTYRVVSVLPIQHQDWLSGKEFKCSVTNVGVPQPISRAISRGKGPSRVPQVYVLPPHPDELAKSKVSVTCLVKDFYPPDISVEWQSNRWPELEGKYSTTPAQLDGDGSYFLYSKLSLETSRWQQVESFTCAVMHEALHNHFTKTDISESLGK	weak or no measurable Protein A binding affinity	weak or no measurable binding affinity to C1q	−	−	
equine IgG5 Fc: wild-type equine IgG5 Fc polypeptide (protein, Wild-type equine IgG5 Fc, Protein A -, C1q -, wild-type equine IgG5 Fc polypeptide) GGPSVFIFPPKPKDVLMISRKPEVTCVVVDLGHDDPDVQFTWFVDGVETHTATTEPKEEQFNSTYRVVSVLPIQHQDWLSGKEFKCSVTSKALPAPVERTISKAKGQLRVPQVYVLAPHPDELAKNTVSVTCLVKDFYPPEIDVEWQSNEHPEPEGKYSTTPAQLNSDGSYFLYSKLSVETSRWKQGESFTCGVMHEAVENHYTQKNVSHSPGK	weak or no measurable Protein A binding affinity	weak or no measurable binding affinity to C1q	−	−	
equine IgG6 Fc: wild-type equine IgG6 Fc polypeptide (protein, Wild-type equine IgG6 Fc, Protein A -, C1q -, wild-type equine IgG6 Fc polypeptide) GRPSVFIFPPNPKDTLMISRTPEVTCVVVDVSQENPDVKFNWYVDGVEAHTATTKAKEKQDNSTYRVVSVLPIQHQDWRRGKEFKCKVNNRALPAPVERTITKAKGELQDPQVYILAPHPDEVTKNTVSVTCLVKDFYPPDINVEWQSNEEPEPEVKYSTTPAQLDGDGSYFLYSKLTVETDRWEQGESFTCVVMHEAIRHTYRQKSITNFPGK	weak or no measurable Protein A binding affinity	weak or no measurable binding affinity to C1q	−	−	
feline IgG1a Fc: wild-type feline IgG1a Fc polypeptide (protein, Alternative wild-type feline IgG1a Fc, Protein A +, C1q +; Wild-type feline IgG1a Fc, Protein A +, C1q +, wild-type feline IgG1a Fc polypeptide) chain 1: RKTDHPPGPKTGEGPKCPPPEMLGGPSIFIFPPKPKDTLSISRTPEVTCLVVDLGPDDSDVQITWFVDNTQVYTAKTSPREEQFNSTYRVVSVLPILHQDWLKGKEFKCKVNSKSLPSPIERTISKAKGQPHEPQVYVLPPAQEELSENKVSVTCLIKSFHPPDIAVEWEITGQPEPENNYRTTPPQLDSDGTYFVYSKLSVDRSHWQRGNTYTCSVSHEALHSHHTQKSLTQSPGK chain 2: RKTDHPPGPKPCDCPKCPPPEMLGGPSIFIFPPKPKDTLSISRTPEVTCLVVDLGPDDSDVQITWFVDNTQVYTAKTSPREEQFNSTYRVVSVLPILHQDWLKGKEFKCKVNSKSLPSPIERTISKAKGQPHEPQVYVLPPAQEELSENKVSVTCLIKSFHPPDIAVEWEITGQPEPENNYRTTPPQLDSDGTYFVYSKLSVDRSHWQRGNTYTCSVSHEALHSHHTQKSLTQSPGK	have Protein A binding affinity	bind to C1q			
feline IgG1b Fc: wild-type feline IgG1b Fc polypeptide (protein, Alternative wild-type feline IgG1b Fc, Protein A +, C1q +; Wild-type feline IgG1b Fc, Protein A +, C1q +, wild-type feline IgG1b Fc polypeptide) chain 1: RKTDHPPGPKTGEGPKCPPPEMLGGPSIFIFPPKPKDTLSISRTPEVTCLVVDLGPDDSDVQITWFVDNTQVYTAKTSPREEQFNSTYRVVSVLPILHQDWLKGKEFKCKVNSKSLPSPIERTISKDKGQPHEPQVYVLPPAQEELSENKVSVTCLIEGFYPSDIAVEWEITGQPEPENNYRTTPPQLDSDGTYFLYSRLSVDRSRWQRGNTYTCSVSHEALHSHHTQKSLTQSPGK chain 2: RKTDHPPGPKPCDCPKCPPPEMLGGPSIFIFPPKPKDTLSISRTPEVTCLVVDLGPDDSDVQITWFVDNTQVYTAKTSPREEQFNSTYRVVSVLPILHQDWLKGKEFKCKVNSKSLPSPIERTISKDKGQPHEPQVYVLPPAQEELSENKVSVTCLIEGFYPSDIAVEWEITGQPEPENNYRTTPPQLDSDGTYFLYSRLSVDRSRWQRGNTYTCSVSHEALHSHHTQKSLTQSPGK	have Protein A binding affinity	bind to C1q			
feline IgG2 Fc: wild-type feline IgG2 Fc polypeptide (protein, Wild-type feline IgG2 Fc, Protein A +, C1q -, wild-type feline IgG2 Fc polypeptide) PKTASTIESKTGEGPKCPVPEIPGAPSVFIFPPKPKDTLSISRTPEVTCLVVDLGPDDSNVQITWFVDNTEMHTAKTRPREEQFNSTYRVVSVLPILHQDWLKGKEFKCKVNSKSLPSAMERTISKAKGQPHEPQVYVLPPTQEELSENKVSVTCLIKGFHPPDIAVEWEITGQPEPENNYQTTPPQLDSDGTYFLYSRLSVDRSHWQRGNTYTCSVSHEALHSHHTQKSLTQSPGK	have Protein A binding affinity	weak or no measurable binding affinity to C1q			−
